Reference: PMC4622073 (mAbs, 2014)

Experiments:
[1] = biological target: T1, mST2-Fc fusion protein (unlabelled) (mouse, UniProt P14719 27-332); experiment: AlphaScreen or HTRF
T1 sequence: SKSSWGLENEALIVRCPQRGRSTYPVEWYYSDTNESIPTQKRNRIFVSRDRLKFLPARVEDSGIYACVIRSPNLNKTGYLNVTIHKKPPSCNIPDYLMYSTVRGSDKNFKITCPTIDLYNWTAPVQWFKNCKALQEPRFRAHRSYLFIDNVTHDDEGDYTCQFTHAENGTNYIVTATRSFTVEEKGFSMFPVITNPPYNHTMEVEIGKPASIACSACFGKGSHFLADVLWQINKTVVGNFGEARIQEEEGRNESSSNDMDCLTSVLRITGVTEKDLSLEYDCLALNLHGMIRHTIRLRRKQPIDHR

[2] = biological target: T2, biotinylated mST2-Fc fusion protein (mouse, UniProt P14719 27-332, biotin (site not stated)); experiment: AlphaScreen or HTRF
T2 sequence: T1 sequence

B1: mouse interleukin-33 (mIL-33), amino acids 97-266, FLAG 10His tagged (ligand)
chain: SIQAFAASVDTLSIQGTSLLTQSPASLSTYNDQSVSFVLENGCYVINVDDSGKDQEQDQVLLRYYESPCPASQSGDGVDGKKLMVNMSPIKDTDIWLHANDKDYSVELQRGDVSPPEQAFFVLHKKSSDFVSFECKNLPGTYIGVKDNQLALVEEKDESCNNIMFKLSKI
binding result [1]: binds
binding result [2]: binds
